According to the supplement of paper PMC9170038:

Test system: K4 kissing-loop RNA reporter
Experiment: apparent KD of K4 kissing-loop reporter; higher = weaker reporter binding
Details: Eterna round: R107
Protocol: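 RNA-MaP round R107: designed RNA switches with theophylline, tryptophan, arginine or FMN aptamers are transcribed on-chip within common flanks. They are titrated with a labelled K4 kissing-loop RNA reporter in RNA-MaP buffer (100 mM Tris pH 7.5, 80 mM KCl, 4 mM MgCl2), without ligand or with the indicated ligand. Median apparent KD per design.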

[1] = input ligand: theophylline 20 uM
[2] = input ligand: tryptophan 2.4 mM
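Also: bound reporter read as fluorescence of individual clusters on recovered sequencing chips by microscopy, with normalized cluster intensities fitted with a binding model.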

Sequence | apparent KD of K4 kissing-loop reporter (input ligand: FMN 200 uM) [nM] | apparent KD of K4 kissing-loop reporter (input ligand: arginine 13.2 mM) [nM] | apparent KD of K4 kissing-loop reporter (input ligand: none) [nM] | apparent KD of K4 kissing-loop reporter [1] [nM] | apparent KD of K4 kissing-loop reporter [2] [nM]
UGAUAGGACAGAAGGAGCGGUAGUGAUGUUACCAAAAGGCUAAGGUGUCAAAAGACACCCUACCAGGUAGGUCGCUGUCCUAUCU | 131 | 131 | 137 | 121 | 103
UGAUCACAGUGAUGUUGUGGCAAAAGUGAUACCAGCCGUGUACGAGGCCCUUGGCAGCACCAGGGCUGUACGUCGUUAGAUCCGG [theeternabot_exclusion_KL_Theo_A_33] | 211 | 156 | 194 | 177 | 169
UGAUUUAACUGAAGGAGCGGCAAGAGAGAAGGAAAUAUAGUGAUGUUAUAUAAGAGAGAGAGCCAGGUAGGUCGCAGAGGGAGGA [ExArgB.E] | 126 | 126 | 173 | 178 | 137
UGCACGGGCUCGGCCGCCACUCCCGCGGGUCGAAAGGUCCGCUACUGAGUGAUGUUCGGUUGGAGGAGGACCGGGAGCCCGUGCA [#2 Exclusion - Tryptophan B Attempt #24 (HarryS)] | 95.6 | 92.9 | 108 | 69.7 | 69.2
UGCAGUGAUGUUGCUAUUUUUCUUGAUUAACGAGGACCGGUACGGCCGCCACUCGAUUUCUCUCUAGUCCAGUAUGUUGUUUGAU [whbob_EX_Tryp_A_t5] | 96.2 | 124 | 99.8 | 125 | 82.9
UGCGCUGUGUACUGUAAUGUUAUGCGGGAUACCAGAGUCUUUUUAUUCCCUUGGCAGCUUGAGUGAUGUUUGAUGCCGUUCUUGU [plpkmullin] | 481 | 327 | 504 | 452 | 401
UGCUGUCAAUAAGAUACCAGUUGGACUGAGUGAUGUUCAUCCAUUAUAUCUAUUCUGCUUAACCCUUGGCAGCUUGAUGACGUUU [theeternabot_exclusion_KL_Theo_B_6] | 174 | 149 | 180 | 191 | 182
UGCUUUAUCAGAAGGAGCGCGUUAUUCAUAAUAAUAAUCAGUGAUGUUGAUAUAUGAUGAUUGCAGGUAGGUCGCUGAUAUAGCU [KL-XARG-B3] | 310 | 225 | 274 | 253 | 259
UGGACCUGACUCGAUAAGAGUCAAUGAGAUACCAGCCACGAAAGUGGCCCUUGGCAGCUCUGCCAGUGAUGUUGGUCAAGGUCCU [#SwitchBubble 5 #StaticStem] | 1280 | 889 | 1550 | 584 | 1100
UGGAGUUGACGAAAAGUCAACUCCCGAGAAGGAGCGGACGAAAGUCCAGGUAGGUCGCUCGCUACCAGUGAUGUUGGUACUCAAA | 127 | 182 | 156 | 192 | 135
UGGAGUUGACGAAAAGUCAACUCCUGAGAAGGAGCGGACGAAAGUCCAGGUAGGUCGCUCACUACCAGUGAUGUUGGUACUAAAA | 160 | 157 | 141 | 66.6 | 203
UGGAGUUGACGAAAAGUCAACUCCUGAGAUACCAGUGACGAAAGUCACCCUUGGCAGCUCACUGCCAGUGAUGUUGGUUUAUAAA [#OpenEnded 2] | 167 | 135 | 134 | 266 | 130
UGGAGUUGACGAAAAGUCAACUCCUGAGAUACCAGUGACGAAAGUCACCCUUGGCAGCUCACUGGCAGUGAUGUUGCGCGAUAAA [#23 K4 Theophylline A Same State] | 376 | 288 | 364 | 367 | 402
UGGAGUUGACGAAAAGUCAACUCCUGGGAAGGAGCGGACGAAAGUCCAGGUAGGUCGCCCACUACCAGUGAUGUUGGUACUCAAA | 178 | 196 | 170 | 266 | 169
UGGAUAUAGUGAUGUUAUAUAGAGAUAGAUACCAGUUAAGAGAAUAGCCCUUGGCAGCUGAAAGAAGUAUCAUUAGAGAAGAAUG [ExTheophyl.Ab] | 212 | 147 | 207 | 170 | 137
UGGAUAUAGUGAUGUUAUAUAGAGAUGGAUACCAGCAAAGAGAAUUGCCCUUGGCAGCCGAAAGAAGUAUCAUUAGAGAAGAAUG [ExTheophyl.Af] | 285 | 221 | 278 | 277 | 206
UGGAUAUAGUGAUGUUAUAUAGAGAUGGAUACCAGCGAAGAGAAUUGCCCUUGGCAGCCGAAAGCAGUAUCAUUAGAGAAGAAUG [#19 K4 Theophylline A Exclusion] | 291 | 252 | 271 | 251 | 255
UGGAUAUAGUGAUGUUAUAUAGAGAUGGAUACCAGCUGAGAGAAUAGCCCUUGGCAGCCGAAAGAAGUAUCAUUAGAGAAGAAUG [ExTheophyl.Aj] | 248 | 188 | 231 | 271 | 172
